According to publication PMC5264652 (EBioMedicine, 2016):
Values joined by “and” are separate entries in the source; they are usually repeats but may differ in a detail not shown here. Identical values can stand only once. Like-named read-outs stand apart in the source and are kept apart here.

B1: ClfA_(229–545) (domain or fragment)
chain: GTDITNQLTNVTVGIDSGTTVYPHQAGYVKLNYGFSVPNSAVKGDTFKITVPKELNLNGVTSTAKVPPIMAGDQVLANGVIDSDGNVIYTFTDYVNTKDDVKATLTMPAYIDPENVKKTGNVTLATGIGSTTANKTVLVDYEKYGKFYNLSIKGTIDQIDKTNNTYRQTIYVNPSGDNVIAPVLTGNLKPNTDSNALIDQQNTSIKVYKVDNAADLSESYFVNPENFEDVTNSVNITFPNPNQYKVEFNTPDDQITTPYIVVVNGHIDPNSKGDLALRSTLYGYNSNIIWRSMSWDNEVAFNNGSGSGDGIDKPVVP
B5: Human fibrinogen (complex)
chain 1: ADSGEGDFLAEGGGVRGPRVVERHQSACKDSDWPFCSDEDWNYKCPSGCRMKGLIDEVNQDFTNRINKLKNSLFEYQKNNKDSHSLTTNIMEILRGDFSSANNRDNTYNRVSEDLRSRIEVLKRKVIEKVQHIQLLQKNVRAQLVDMKRLEVDIDIKIRSCRGSCSRALAREVDLKDYEDQQKQLEQVIAKDLLPSRDRQHLPLIKMKPVPDLVPGNFKSQLQKVPPEWKALTDMPQMRMELERPGGNEITRGGSTSYGTGSETESPRNPSSAGSWNSGSSGPGSTGNRNPGSSGTGGTATWKPGSSGPGSTGSWNSGSSGTGSTGNQNPGSPRPGSTGTWNPGSSERGSAGHWTSESSVSGSTGQWHSESGSFRPDSPGSGNARPNNPDWGTFEEVSGNVSPGTRREYHTEKLVTSKGDKELRTGKEKVTSGSTTTTRRSCSKTVTKTVIGPDGHKEVTKEVVTSEDGSDCPEAMDLGTLSGIGTLDGFRHRHPDEAAFFDTASTGKTFPGFFSPMLGEFVSETESRGSESGIFTNTKESSSHHPGIAEFPSRGKSSSYSKQFTSSTSYNRGDSTFESKSYKMADEAGSEADHEGTHSTKRGHAKSRPVRGIHTSPLGKPSLSP
chain 2: QGVNDNEEGFFSARGHRPLDKKREEAPSLRPAPPPISGGGYRARPAKAAATQKKVERKAPDAGGCLHADPDLGVLCPTGCQLQEALLQQERPIRNSVDELNNNVEAVSQTSSSSFQYMYLLKDLWQKRQKQVKDNENVVNEYSSELEKHQLYIDETVNSNIPTNLRVLRSILENLRSKIQKLESDVSAQMEYCRTPCTVSCNIPVVSGKECEEIIRKGGETSEMYLIQPDSSVKPYRVYCDMNTENGGWTVIQNRQDGSVDFGRKWDPYKQGFGNVATNTDGKNYCGLPGEYWLGNDKISQLTRMGPTELLIEMEDWKGDKVKAHYGGFTVQNEANKYQISVNKYRGTAGNALMDGASQLMGENRTMTIHNGMFFSTYDRDNDGWLTSDPRKQCSKEDGGGWWYNRCHAANPNGRYYWGGQYTWDMAKHGTDDGVVWMNWKGSWYSMRKMSMKIRPFFPQQ
chain 3: YVATRDNCCILDERFGSYCPTTCGIADFLSTYQTKVDKDLQSLEDILHQVENKTSEVKQLIKAIQLTYNPDESSKPNMIDAATLKSRKMLEEIMKYEASILTHDSSIRYLQEIYNSNNQKIVNLKEKVAQLEAQCQEPCKDTVQIHDITGKDCQDIANKGAKQSGLYFIKPLKANQQFLVYCEIDGSGNGWTVFQKRLDGSVDFKKNWIQYKEGFGHLSPTGTTEFWLGNEKIHLISTQSAIPYALRVELEDWNGRTSTADYAMFKVGPEADKYRLTYAYFAGGDAGDAFDGFDFGDDPSDKFFTSHNGMQFSTWDNDNDKFEGNCAEQDGSGWWMNKCHAGHLNGVYYQGGTYSKASTPNGYDNGIIWATWKTRWYSMKKTTMKIIPFNRLTIGEGQQHHLGGAKQAGDV

How the values were obtained:
Experiment in all cases: SPR
GST-tagged Fg γ peptide = biological target: GST-tagged Fg γ peptide
Human fibrinogen [1] = biological target: B5
Human fibrinogen [2] = biological target: B5; remark: listed apart in the source
Fibrinogen D-fragment [3] = biological target: T1, Fibrinogen D-fragment (UniProt P02671;P02675;P02679-2)
T1 sequence 1: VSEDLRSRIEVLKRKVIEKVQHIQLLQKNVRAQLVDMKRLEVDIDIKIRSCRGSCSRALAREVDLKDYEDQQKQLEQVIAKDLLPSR
T1 sequence 2: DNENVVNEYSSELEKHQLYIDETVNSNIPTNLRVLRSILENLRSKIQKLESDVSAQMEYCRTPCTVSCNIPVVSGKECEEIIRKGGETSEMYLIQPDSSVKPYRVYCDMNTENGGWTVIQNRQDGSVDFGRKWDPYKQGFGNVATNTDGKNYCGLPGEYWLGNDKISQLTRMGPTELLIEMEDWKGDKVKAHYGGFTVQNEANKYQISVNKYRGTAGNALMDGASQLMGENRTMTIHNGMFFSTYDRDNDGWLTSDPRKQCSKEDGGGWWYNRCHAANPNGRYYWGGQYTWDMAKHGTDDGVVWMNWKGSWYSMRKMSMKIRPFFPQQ
T1 sequence 3: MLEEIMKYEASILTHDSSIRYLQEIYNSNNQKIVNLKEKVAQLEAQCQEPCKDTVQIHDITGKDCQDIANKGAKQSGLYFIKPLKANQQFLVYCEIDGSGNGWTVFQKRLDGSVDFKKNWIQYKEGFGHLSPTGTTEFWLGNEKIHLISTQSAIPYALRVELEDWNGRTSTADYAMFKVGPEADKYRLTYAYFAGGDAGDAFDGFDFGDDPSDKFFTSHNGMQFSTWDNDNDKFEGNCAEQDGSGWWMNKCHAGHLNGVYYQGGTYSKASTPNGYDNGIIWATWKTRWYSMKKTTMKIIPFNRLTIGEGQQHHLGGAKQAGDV

ClfA_(229–545) [4] = biological target: ClfA_(229–545) (S. aureus strain Newman, UniProt Q53653)
Fibrinogen D-fragment [5] = biological target: T1, Fibrinogen D-fragment; remark: listed apart in the source
ClfA_(229–545) [6] = biological target: B1

“ClfA_(229–545) (from UniProt Q53653 229-545) (domain or fragment)” showed a fold difference in KD against Fg or Fg D-fragment (GST-tagged Fg γ peptide) of 50 fold.

“ClfA N3 (ClfA_(370–559)) (from UniProt Q53653 370-559) (domain or fragment)” was tested, and the fold lower affinity against intact Fg or Fg D-fragment (GST-tagged Fg γ peptide) was 10 fold.

For B1, the Kd (Human fibrinogen [1]) was 610 nM and 660 nM.

B2: ClfAPWY (domain or fragment)
chain: VAADAPAAGTDITNQLTNVTVGIDSGTTVYPHQAGYVKLNYGFSVPNSAVKGDTFKITVPKELNLNGVTSTAKVPPIMAGDQVLANGVIDSDGNVIYTFTDYVNTKDDVKATLTMPAYIDPENVKKTGNVTLATGIGSTTANKTVLVDYEKYGKFYNLSIKGTIDQIDKTNNTYRQTIYVNPSGDNVIAPVLTGNLKPNTDSNALIDQQNTSIKVYKVDNAADLSESYFVNPENFEDVTNSVNITFANPNQYKVEFNTPDDQITTPYIVVVNGHIDPNSKGDLALRSTLYGANSNIIARSMSWDNEVAFNNGSGSGDGIDKPVVPEQPDEPGEIEPIPE
B2 gave a Kd (Human fibrinogen [2]) of 10000 nM and a Kd (Fibrinogen D-fragment [3]) of 17000 nM.

B3: tefibazumab (antibody, V domains shown)
VH: QVQLKESGPGLVKPSQTLSITCTISGFSLSRYSVHWVRQPPGKGLEWLGMIWGGGNTDYNSALKSRLSISKDNSKNQVFLKMNSLTAADTAVYYCARKGEFYYGYDGFVYWGQGTLVTVSS
VL: DIVMTQSPDSLAVSLGERVTMNCKSSQSVLYSSNQKNYLAWYQQKPGQSPKLLIYWASTRESGVPDRFSGSGSGTDFTLTISSVQAEDLAVYYCHQYLSSYTFGGGTKLEIK
B3 was tested, and the IC50 (ClfA_(229–545) [4]) was 330 nM and 390 nM, the Kd (ClfA_(229–545) [4]) was 0.79 nM and 0.81 nM and 0.7 nM and the koff (ClfA_(229–545) [4]) was 0.00049 s⁻¹. The kon (ClfA_(229–545) [4]) was 594000 M⁻¹ s⁻¹.

B4: ClfA N3 (ClfA_(370–559)) (domain or fragment)
chain: EKYGKFYNLSIKGTIDQIDKTNNTYRQTIYVNPSGDNVIAPVLTGNLKPNTDSNALIDQQNTSIKVYKVDNAADLSESYFVNPENFEDVTNSVNITFPNPNQYKVEFNTPDDQITTPYIVVVNGHIDPNSKGDLALRSTLYGYNSNIIWRSMSWDNEVAFNNGSGSGDGIDKPVVPEQPDEPGEIEPIPE
With B4 the “fold of KD against ClfA229-545 on the same protein” value (Human fibrinogen [1]) was about 10 fold and the “fold of KD against ClfA229-545 on the same protein” value (Fibrinogen D-fragment [5]) was about 10 fold.

B5 was tested, and the IC50 (ClfA_(229–545) [6]) was 430 nM and 480 nM.
